Measured values: paper PMC4226670, “TAp73 promotes cell survival upon genotoxic stress by inhibiting p53 activity”

Target: T1, GST-TAp73α (UniProt O15350 1-636)
T1 sequence: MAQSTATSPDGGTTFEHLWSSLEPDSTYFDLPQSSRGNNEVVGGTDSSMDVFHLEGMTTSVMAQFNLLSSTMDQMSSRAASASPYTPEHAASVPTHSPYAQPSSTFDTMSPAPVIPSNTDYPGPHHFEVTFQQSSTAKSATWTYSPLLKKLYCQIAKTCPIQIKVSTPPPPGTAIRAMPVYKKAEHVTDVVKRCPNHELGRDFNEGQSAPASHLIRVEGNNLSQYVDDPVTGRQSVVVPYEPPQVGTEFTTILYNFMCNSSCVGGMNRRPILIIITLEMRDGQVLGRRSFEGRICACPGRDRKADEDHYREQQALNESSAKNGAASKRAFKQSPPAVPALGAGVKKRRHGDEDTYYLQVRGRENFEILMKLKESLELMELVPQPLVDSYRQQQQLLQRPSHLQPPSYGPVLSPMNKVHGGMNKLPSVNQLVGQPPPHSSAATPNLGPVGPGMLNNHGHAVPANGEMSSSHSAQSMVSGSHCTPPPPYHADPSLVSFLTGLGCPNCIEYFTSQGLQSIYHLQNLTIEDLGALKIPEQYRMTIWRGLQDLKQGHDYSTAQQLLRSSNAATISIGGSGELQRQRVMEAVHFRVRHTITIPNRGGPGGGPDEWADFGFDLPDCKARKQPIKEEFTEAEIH
Assay: fluorescence polarization; FP: 4 nM FAM duplex, 100 mM NaCl, 10 mM Tris-HCl pH 7.5, 10% glycerol, 5 mM DTT, 0.2 mg/mL BSA, room temperature; pull-down: 2 ug duplex with lysate, 90 min room temperature, then streptavidin beads 2 h 4 C
Settings: protein: commercial; tags: GST; chain copies: 4; label: 5' 6-FAM on strand 1; blunt

B1: PUMA promoter duplex, FAM (dsDNA)
DNA 1: CGCGCCTGCAAGTCCTGACTTGTCCGCGGC
DNA 2: GCCGCGGACAAGTCAGGACTTGCAGGCGCG
Kd: 87.1 nM
